Broadly, the Kd is the free concentration of one partner at which half of the binding sites on the other are occupied at equilibrium, for simple one-to-one binding. A higher Kd goes with a looser complex.

Where no end group is shown, it is not given here. The star is where a group is joined. FITC = O=C1OC2(c3ccc(O)cc3Oc3cc(O)ccc32)c2ccc(NC(=S)*)cc21

This passage reports Kd results from paper PMC6242971 (2018).

What all share (experiment): FP
One assay deals with T1, GST-tagged GluK2 ATD (rat).
T1 chain: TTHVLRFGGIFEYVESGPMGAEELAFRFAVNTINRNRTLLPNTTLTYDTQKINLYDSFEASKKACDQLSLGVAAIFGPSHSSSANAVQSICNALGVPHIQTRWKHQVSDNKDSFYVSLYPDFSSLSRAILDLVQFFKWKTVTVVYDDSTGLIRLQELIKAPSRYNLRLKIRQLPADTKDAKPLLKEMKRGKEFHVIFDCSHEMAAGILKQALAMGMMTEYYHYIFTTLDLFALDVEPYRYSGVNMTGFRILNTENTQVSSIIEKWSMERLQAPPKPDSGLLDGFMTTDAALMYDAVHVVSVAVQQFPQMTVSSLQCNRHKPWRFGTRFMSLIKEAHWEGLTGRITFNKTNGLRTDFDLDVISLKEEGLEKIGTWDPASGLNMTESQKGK

Assay [1] addresses T2, GST-tagged GluK2 region corresponding to GluK1 N72-137 (rat, UniProt P42260 71-136).
T2 chain: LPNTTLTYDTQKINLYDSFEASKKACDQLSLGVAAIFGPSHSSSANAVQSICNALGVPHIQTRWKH

The target in a further assay is T3, GST-tagged GluK1 ATD (rat).
T3 chain: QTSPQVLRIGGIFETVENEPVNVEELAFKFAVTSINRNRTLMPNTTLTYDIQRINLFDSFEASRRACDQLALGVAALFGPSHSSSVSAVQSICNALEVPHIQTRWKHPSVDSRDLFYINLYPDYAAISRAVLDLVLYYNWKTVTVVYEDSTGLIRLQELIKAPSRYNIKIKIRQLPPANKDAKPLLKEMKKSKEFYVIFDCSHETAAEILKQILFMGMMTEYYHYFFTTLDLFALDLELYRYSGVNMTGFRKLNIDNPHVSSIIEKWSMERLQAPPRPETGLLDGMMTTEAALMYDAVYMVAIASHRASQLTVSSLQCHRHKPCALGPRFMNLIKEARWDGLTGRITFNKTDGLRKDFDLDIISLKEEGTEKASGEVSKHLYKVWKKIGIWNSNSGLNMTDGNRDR

Assay [2] concerns the target T4, GST-tagged GluK1 N72-137 region (rat, UniProt P22756 72-137).
T4 chain: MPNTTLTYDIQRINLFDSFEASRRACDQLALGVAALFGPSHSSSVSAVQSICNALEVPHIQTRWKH

For {FITC}-MERSTVLIQPGLWTRDTSWTLLYFLCYILP [FITC-labelled GluK1 signal peptide], the Kd with GST-tagged GluK2 ATD amounted to 35.7 µM; in assay [1], 36.3 µM; with GST-tagged GluK1 ATD, 13.7 µM; in assay [2], 14.1 µM.
